This note sets out measurements from US20260109776A1 (Amgen, published 2026).

Test [1] addresses T1, human CD40 on cells (human, UniProt P25942 21-277).
T1 construct: also called CD40 receptor on human B cells
Kind of test: flow cytometry, labelled CD40L on CD40-293T cells, antibody at 10 ug/ml. The procedure: Percent ligand binding inhibition was calculated as [(CD40L binding gMFI in the absence of anti-CD40)−(CD40L binding gMFI in the presence of anti-CD40)]/(CD40L binding gMFI in the absence of anti-CD40). gMFI: geometric mean fluorescent intensity. All anti-CD40 antibodies show minimal effects on the ability of CD40L to bind to the CD40 receptor (Table 7).
On the technique in general: A flow cytometer gives signals particle by particle.

Test [2] concerns the target T2, mouse CD40 on cells (mouse, UniProt P27512 20-289).
T2 construct: whole, on cells; also called mouse CD40 on HEK293 cells; CD40 on mouse B cells
T2 sequence (looked up): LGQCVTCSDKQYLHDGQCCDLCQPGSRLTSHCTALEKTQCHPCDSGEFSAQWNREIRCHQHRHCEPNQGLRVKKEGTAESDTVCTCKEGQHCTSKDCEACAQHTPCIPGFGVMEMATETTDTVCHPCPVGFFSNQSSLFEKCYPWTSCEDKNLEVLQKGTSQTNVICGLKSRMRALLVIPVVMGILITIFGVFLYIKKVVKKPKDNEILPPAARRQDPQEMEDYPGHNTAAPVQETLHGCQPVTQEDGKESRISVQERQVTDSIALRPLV
Kind of test: flow cytometry, HEK293 transfectants vs control cells. The protocol: (§1) The binding affinity of anti-human CD40 antibodies to human and cynomolgus monkey CD40 was measured by Octet assay (Table 3), quantifying association rate (Kon), disassociation rate (Kdis), and equilibrium binding constant (KD). Cross-reactivity of anti-CD40 antibodies to related TNF receptor superfamily (TNFRSF) members was evaluated by expressing human TNFR1, TNFR2, TNFR10, or TNFR14 on HEK293 cells by transient transfection of expression vectors encoding these genes. Binding of indicated anti-human CD40 antibody to these transfected cells was determined by flow cytometry. […] Cross-reactivity of anti-CD40 antibodies to cynomolgus monkey and mouse CD40 was evaluated by expressing cynomolgus monkey or mouse CD40 on HEK293 cells by transient transfection of expression vectors encoding these genes. Binding of indicated anti-human CD40 antibody to cells overexpressing cynomolgus monkey and mouse CD40 was determined by flow cytometry.

Test [3] addresses T3, human TNFR10 (human).
T3 construct: whole, on cells; Name as printed is ambiguous (TNFRSF10A-D)
The test is described as above. The protocol: as §1

The target of test [4] is T4, cynomolgus monkey CD40 on cells (cynomolgus monkey, UniProt P25942 21-277 (human entry)).
T4 construct: also called cyno CD40 on HEK293 cells; CD40 on cynomolgus monkey B cells
T4 chain: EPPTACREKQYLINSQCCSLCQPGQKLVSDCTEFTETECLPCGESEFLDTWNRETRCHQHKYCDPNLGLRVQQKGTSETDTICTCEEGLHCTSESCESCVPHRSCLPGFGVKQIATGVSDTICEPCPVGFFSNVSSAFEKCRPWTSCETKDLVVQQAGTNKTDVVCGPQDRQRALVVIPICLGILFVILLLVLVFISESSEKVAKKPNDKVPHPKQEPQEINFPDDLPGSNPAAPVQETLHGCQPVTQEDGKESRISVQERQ
Described as above. The protocol: as §1

Test [5] deals with T5, human TNFR1 (human, UniProt P19438 30-455).
T5 construct: whole, on cells
T5 sequence (looked up): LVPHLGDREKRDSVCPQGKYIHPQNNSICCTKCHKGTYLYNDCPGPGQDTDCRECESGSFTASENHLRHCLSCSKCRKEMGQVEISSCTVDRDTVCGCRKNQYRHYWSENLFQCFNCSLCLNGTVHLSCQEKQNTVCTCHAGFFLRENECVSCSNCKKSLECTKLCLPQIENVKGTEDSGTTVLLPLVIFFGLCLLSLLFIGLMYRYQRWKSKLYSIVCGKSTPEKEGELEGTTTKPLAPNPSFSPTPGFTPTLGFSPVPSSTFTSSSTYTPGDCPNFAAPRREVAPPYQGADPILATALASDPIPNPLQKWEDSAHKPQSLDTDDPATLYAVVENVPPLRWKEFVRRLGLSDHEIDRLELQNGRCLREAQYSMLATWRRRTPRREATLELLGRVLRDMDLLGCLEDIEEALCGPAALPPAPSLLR
Described as above. The protocol: as §1

For test [6], the target named is T6, human TNFR2 (human, UniProt P20333 23-461).
T6 construct: whole, on cells
T6 sequence (looked up): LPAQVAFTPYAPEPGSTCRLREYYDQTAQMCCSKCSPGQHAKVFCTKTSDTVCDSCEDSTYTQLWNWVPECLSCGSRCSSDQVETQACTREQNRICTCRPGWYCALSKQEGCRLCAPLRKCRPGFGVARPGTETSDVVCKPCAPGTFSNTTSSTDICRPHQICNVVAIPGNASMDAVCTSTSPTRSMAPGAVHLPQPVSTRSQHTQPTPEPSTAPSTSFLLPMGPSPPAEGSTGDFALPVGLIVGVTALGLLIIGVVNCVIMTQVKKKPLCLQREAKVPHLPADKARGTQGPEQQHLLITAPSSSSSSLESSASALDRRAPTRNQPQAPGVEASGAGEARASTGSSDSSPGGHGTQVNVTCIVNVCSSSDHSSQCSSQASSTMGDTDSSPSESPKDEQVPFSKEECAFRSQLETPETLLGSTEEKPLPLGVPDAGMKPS
Described as above. The procedure: as §1

Test [7] deals with T7, human TNFR14 (human, UniProt Q92956 39-283).
T7 construct: whole, on cells
T7 sequence (looked up): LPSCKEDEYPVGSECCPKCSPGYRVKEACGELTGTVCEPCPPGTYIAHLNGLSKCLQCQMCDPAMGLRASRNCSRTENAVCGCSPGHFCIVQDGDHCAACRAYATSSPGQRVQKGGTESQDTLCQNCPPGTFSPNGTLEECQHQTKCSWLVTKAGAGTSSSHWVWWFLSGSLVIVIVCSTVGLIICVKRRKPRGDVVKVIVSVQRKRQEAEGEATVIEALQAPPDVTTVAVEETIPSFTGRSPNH
The description is as above. The procedure:
as §1

T1 sequence (P25942 21-277 limits assumed): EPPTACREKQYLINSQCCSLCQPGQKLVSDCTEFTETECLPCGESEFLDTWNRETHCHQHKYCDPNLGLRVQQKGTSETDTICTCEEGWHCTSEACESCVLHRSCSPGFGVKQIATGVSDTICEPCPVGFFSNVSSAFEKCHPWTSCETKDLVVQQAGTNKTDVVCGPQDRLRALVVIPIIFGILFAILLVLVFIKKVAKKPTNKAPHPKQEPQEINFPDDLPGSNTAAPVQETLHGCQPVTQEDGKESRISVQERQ

B1: 35F11 (antibody, IgG4, V domains shown)
VH: QVQLVESGGGVVQPGRSLRLSCAASGFTLSSYGMHWVRQAPGKGLEWVAVIWYDGSNKYYADSVKGRVTISRDNSKNTLYLQMNSLRAEDTAVYYCTRDGRNYVYFDNWGQGTLVTVSS
VL: QSALTQPRSVSGSPGQSVTISCTGTSSDVGGYIFVSWYQQHPGKAPKLMIYDVSKRPSGVPDRFSGSKSVNTASLTISGLQAEDETDYYCCSYAGNYTYVFGTGTKVTVLG
notes: also called 4868-1
Consider B1, for which, in test [1], the “Ligand Binding Inhibition (%)” value worked out at 51%. Further, the “fold over control (gMFI)” value in test [2] is 0.8 fold; in test [3] it was 0.73 fold; in test [4] it was 76 fold; in test [5] it was 1 fold; in test [6] it was 0.85 fold; in test [7] it was 0.74 fold.

B2: 33H6 (antibody, IgG4, V domains shown)
VH: QVQLVQSGAEVKKPGASVKVSCKASGYTFPGYYMYWLRQAPGQGLEWMGWINPDSGDTNYAQKFQGRVTMTRDTSISTAFMELSRLRSDDTAVYYCAREKPRYFDSFYYYLMDVWGQGTTVTVSS
VL: DIQMTQSPSSLSASVGDRVTITCRAGQNISRHLNWYQQNPGKAPKVLIHPASSLPSGVPSRFSGSGSGTDFSLTISSLQPEDFGTYFCQQSYSTPPTFGGGTKVELKR
notes: also called 4883-1
On to B2, for which the “Ligand Binding Inhibition (%)” value in test [1] came to 11%. The “fold over control (gMFI)” value stood at 0.9 fold in test [2]; 0.77 fold in test [3]; 74 fold in test [4]; 1 fold in test [5]; 0.81 fold in test [6]; 0.8 fold in test [7].

B3: 37A6 (antibody, IgG4, V domains shown)
VH: QVQLVESGGGLVKPGGSLRLSCAASEFTFSDYYMSWIRQAPGKGLEWVSYISRSGDTIYYADSVKGRFTISRDNAKNSLYLQMNGLRAEDTAVYYCARDLAAGATGGLDCWGQGTLVTVSS
VL: SYELTQPPSVSVSPGQTASITCSGERLGNKYICWYQQKPGQSPVLVIYQDFKRPSGIPERFSGSNSGITATLTISGTQAMDEADYYCQAWDSRTVVFGGGTKLTVLG
notes: also called 4865-1
With B3, in test [1], the “Ligand Binding Inhibition (%)” value was determined as 6%. For the same molecule, the “fold over control (gMFI)” value in test [2] amounted to 0.9 fold; in test [3], 0.88 fold; in test [4] it was 92 fold; in test [5] it was 0.99 fold; in test [6] it was 0.87 fold; in test [7] it was 0.87 fold.

B4: 36F3 (antibody, IgG4, V domains shown)
VH: QVQLQQSGPGLVKPSQTLSLTCAISGDSVSSSRTAWNWIRQSPSRGLEWLGRTYYRSKWYHDYSVSVKSRITIDPDTSKNQFSLQLNSVTPEDTAVYYCARGAAPFDYWGQGTLVTVSS
VL: EIVLTQSPGTLSLSPGERATLSCRASQSVSSNYLAWYQQKPGQAPRALIYAASNRAAGISDRFSGSGSGTDFTLTISRLEPEDFAVYFCQQYGSSPLTFGGGTKVEIKR
notes: also called 4891-1
For the molecule B4, the “Ligand Binding Inhibition (%)” value in test [1] came out at 14%. Besides, the “fold over control (gMFI)” value in test [2] turned out to be 0.9 fold; in test [3], 0.86 fold; in test [4], 82 fold; in test [5], 0.99 fold; in test [6], 0.92 fold; in test [7] it was 0.88 fold.

B5: 29H10 (antibody, V domains shown)
VH: QVQLVQSGAEVTKPGASVKVSCKASGYTFAGYYMHWVRQAPGQGLEWMGWINPHSGGTNYAQKFQDRVTMTRDTSINTAYMELSRLRSDDTAVYYCARERISMVRGVGHNWFAPWGQGTLVTVSS
VL: DIQMTQSPSSLSASVGDRVTITCRASQDISNNLAWFQQKPGKPPKSLMYAASSLHSGVPSTFSGSGSGTDFTFTISSLQPEDFATYYCQQYNSYPLTFGGGTKVEIRR
notes: also called 4877-1
Consider B5, for which the “Ligand Binding Inhibition (%)” value in test [1] came out at 1%. Besides, the “fold over control (gMFI)” value came out at 0.8 fold in test [2]; 0.89 fold in test [3]; 71 fold in test [4]; 0.98 fold in test [5]; 0.88 fold in test [6]; 0.84 fold in test [7].

B6: 4G7 (antibody, IgG4, V domains shown)
VH: QVQLVQSGAEVKKPGASVKVSCKASGYTFAGYYMHWVRQAPGQGLEWMGWINPDSGGTNFAQQFQGRVTMTRDTSISTAYMEVSRLRSDDTAVFYCAREKITMTGIYFDYWGQGTLVTVSS
VL: DIQMTQSPSSLSASVGDILTITCRASQNITTYLNWYQQKPGKAPNLLISAASRLRSGVPSRFSGSGSGTDFTLTISSLQPVDFTTFYCQQTFTTPWTFGQGTKVEIKR
notes: also called 4869-1
As to B6, the “Ligand Binding Inhibition (%)” value in test [1] amounted to 14%. Besides, the “fold over control (gMFI)” value in test [2] came out at 0.9 fold; in test [3], 0.87 fold; in test [4], 57 fold; in test [5] it was 0.97 fold; in test [6], 0.9 fold; in test [7], 0.89 fold.

B7: 39C2 (antibody, IgG4, V domains shown)
VH: QVQLVQSGTEVKKPGASVKVSCKASGYTFPGYYMHWVRQAPGQGLEWMGWINPDSGGTKYTQKFQGRVTLTRDASVSTAYIDLNRLRSDDTAVYYCARERCRTTNCYLDYWGQGSLVTVSS
VL: QSALTQPASVSGSPGQSITISCTGTSSDVGNYNLVSWYQQHPGKAPKLMIYEVNRRPSGVSNRFSGSKSGNTASLTISGLQAEDEAEYYCCSYAGRDTFVVFGGGTKLTVLG
notes: also called 4887-1
Turning to B7, the “Ligand Binding Inhibition (%)” value in test [1] was determined as 3%. In addition, the “fold over control (gMFI)” value in test [2] was determined as 0.9 fold; in test [3], 0.86 fold; in test [4], 87 fold; in test [5], 1 fold; in test [6] it was 0.9 fold; in test [7], 0.89 fold.
